B1: wild-type human deoxythymidylate kinase (TMPK) [human] / itself (parent)
chain: MAARRGALIVLEGVDRAGKSTQSRKLVEALCAAGHRAELLRFPERSTEIGKLLSSYLQKKSDVEDHSVHLLFSANRWEQVPLIKEKLSQGVTLVVDRYAFSGVAFTGAKENFSLDWCKQPDVGLPKPDLVLFLQLQLADAAKRGAFGHERYENGAFQERALRCFHQLMKDTTLNWKMVDASKSIEAVHEDIRVLSEDAIRTATEKPLGELWK

Variants of: B1
Test: size-exclusion chromatography, protein concentration of fractions
Settings: with itself, 200 µg enzyme loaded, 0.4 mL fractions
[1] = fraction F18 (monomer fraction)
[2] = fraction F19 (monomer fraction)
[3] = fraction F20 (monomer fraction)

| Variant | screen value (fraction F15 (dimer fraction)) [mg/mL] | screen value (fraction F16 (dimer fraction)) [mg/mL] | screen value [1] [mg/mL] | screen value [2] [mg/mL] | screen value [3] [mg/mL] |
| --- | --- | --- | --- | --- | --- |
| MAARRGALIVLEGVDRAGKSTQSRKLVEALCAAGHRAELLRFPERSTEIGKLLSSYLQKKSDVEDHSVHLLFSANRWEQVPLIKEKLSQGVTLVVDRYAFSGVAFTGAKENFSLDWCKQPDVGLPKPNLVLFLQLQLADAAKRGAFGHERYENGAFQERALRCFHQLMKDTTLNWKMVDASKSIEAVHEDIRVLSEDAIRTATEKPLGELWK [chain 1 D128N] | 0.004 | 0.005 | 0.016 | 0.019 | 0.012 |
| MAARRGALIVLEGVDRAGKSTQSRKLVEALCAAGHRAELLRFPERSTEIGKLLSSYLQKKSDVEDHSVHLLFSANRWEQVLLIKEKLSQGVTLVVDRYAFSGVAFTGAKENFSLDWCKQPDVGLPKPDLVLFLQLQLADAAKRGAFGHERYENGAFQERALRCFHQLMKDTTLNWKMVDASKSIEAVHEDIRVLSEDAIRTATEKPLGELWK [chain 1 P81L] | 0.002 | 0.009 | 0.024 | 0.016 | 0.013 |
| MAARRGALIVLEGVDRAGKSTQSRKLVEALCAAGHRAELLRFPERSTEIGKLLSSYLQKKSDVEDHSVHLLFSANRWEQVPLIKEKLSQGVTLVVDRYTFSGVAFTGAKENFSLDWCKQPDVGLPKPDLVLFLQLQLADAAKRGAFGHERYENGAFQERALRCFHQLMKDTTLNWKMVDASKSIEAVHEDIRVLSEDAIRTATEKPLGELWK [chain 1 A99T] | 0.006 | 0.01 | 0.019 | 0.015 | 0.012 |

Reference: article PMC8679000, “Biochemical Characterizations of Human TMPK Mutations Identified in Patients with Severe Microcephaly: Single Amino Acid Substitutions Impair Dimerization and Abolish Their Catalytic Activity” (ACS Omega, 2021)
